Reference: PMC6071684, “Defining the hydrophobic interactions that drive competence stimulating peptide (CSP)-ComD binding in Streptococcus pneumoniae” (Beilstein Journal of Organic Chemistry, 2018)
Where a SMILES comes first, the peptide text is derived from it. Where no end group is shown, it is not given here. [ ]: non-standard residue; d: D form. Nva = CCC[C@H](N)C(=O)O

What was measured:
[1] = target: ComD2 receptor (S. pneumoniae (endogenous in TIGR4pcomX::lacZ))
[2] = target: ComD1 receptor (S. pneumoniae (endogenous in D39pcomX::lacZ))
[3] = target: ComD2 receptor (Streptococcus pneumoniae serotype 4, UniProt A0A0H2US84); test: cell-based
ComD2 receptor, sequence (A0A0H2US84 entry or part of it): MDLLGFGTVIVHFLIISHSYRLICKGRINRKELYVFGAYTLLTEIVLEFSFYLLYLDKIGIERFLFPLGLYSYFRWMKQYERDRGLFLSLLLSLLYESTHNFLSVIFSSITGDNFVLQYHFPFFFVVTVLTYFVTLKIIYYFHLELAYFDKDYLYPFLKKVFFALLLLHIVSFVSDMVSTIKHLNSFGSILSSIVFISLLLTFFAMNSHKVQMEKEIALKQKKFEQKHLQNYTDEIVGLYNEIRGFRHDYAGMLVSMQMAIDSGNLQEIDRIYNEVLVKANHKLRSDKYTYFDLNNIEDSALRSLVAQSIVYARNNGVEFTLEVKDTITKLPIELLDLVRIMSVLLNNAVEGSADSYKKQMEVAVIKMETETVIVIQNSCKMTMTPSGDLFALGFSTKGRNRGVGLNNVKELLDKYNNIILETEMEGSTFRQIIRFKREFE
Protocol: (§1) To assess QS modulation, we utilized the β-gal reporter strains, constructed by Lau and co-worker. In these strains the lacZ gene is under the control of QS (pcomX). Thus, upon QS activation, ComE will bind pcomX and transcribe lacZ (in addition to upregulation of ComX). ComD modulation can therefore be quantified by measuring β-gal activity. The peptides were first screened for their ability to activate/inhibit the ComD1 and ComD2 receptors at high concentration (10 µM).
(§2) To examine the ability of the synthesized CSP analogs to modulate the ComD receptors, and thus the QS circuit in S. pneumoniae, β-galactosidase assays were performed using D39pcomX::lacZ (group I) and TIGR4pcomX::lacZ (group II) reporter strains as described in [19].
(§3) Bacterial growth conditions. Bacteria from a freezer stock were grown as described in [19]. Briefly, the bacteria were streaked into a THY agar plate supplemented with 5% donor horse serum and chloramphenicol at a final concentration of 4 µg/mL. The plate was incubated for 8 h in a CO2 incubator (37 °C with 5% CO2). Fresh colonies (single colony for D39pcomX::lacZ; multiple colonies for TIGR4pcomX::lacZ) were picked into sterilized cultural tubes containing 5 mL of THY broth supplemented with chloramphenicol at a final concentration of 4 µg/mL and the cultures were incubated in a CO2 incubator overnight (15 h). Overnight cultures were then diluted (1:50 for D39pcomX::lacZ; 1:10 for TIGR4pcomX::lacZ) with THY and the resulting solution was incubated in a CO2 incubator for 3–4 hours, until the bacteria reached early exponential stage (0.30–0.35 for D39pcomX::lacZ; 0.20–0.25 for TIGR4pcomX::lacZ) as determined by using a plate reader.
(§4) β-Galactosidase assay. Activation assays. […] Briefly, an initial activation screening was performed at high concentration (10 µM) for all CSP analogs. 2 µL of 1 mM solution of CSP analogs in dimethyl sulfoxide (DMSO) were added in triplicate to a clear 96-well microtiter plate. […] 2 µL of DMSO was added in triplicate and served as the negative control for both groups. Then, 198 µL of bacterial culture was added to each well containing CSP and analogs, the plate was incubated at 37 °C for 30 minutes, and the OD600nm was measured. In order to measure the β-galactosidase activity in the pneumococcal culture, the cells were lysed by incubating the culture for 30 minutes at 37 °C with 20 µL of 0.1% Triton X-100. In a new plate, 100 µL of Z-buffer solution (60.2 mM Na2HPO4, 45.8 mM NaH2PO4, 10 mM KCl, and 1.0 mM MgSO4 in 18 MΩ H2O; pH was adjusted to 7.0 and the buffer was sterilized before use) containing 2-nitrophenyl-β-D-galactopyranoside (ONPG) at a final concentration of 0.4 mg/mL was added, followed by 100 µL of lysate, and the plate was incubated for 3 hours at 37 °C. The reaction was stopped by adding 50 µL of 1 M sodium carbonate solution, and the OD420nm and OD550nm were measured using a plate reader. […] For calculation of Miller units, please see data analysis below.
(§5) Analysis of activation/inhibition data. Miller units were calculated using the following formula: […]
(§6) Abs420 is the absorbance of ortho-nitrophenol (ONP). Abs550 is the scatter from cell debris, which, when multiplied by 1.75 approximates the scatter observed at 420 nm. t is the duration of incubation with ONPG in minutes, v is volume of lysate in milliliters, and Abs600 reflects cell density.

[4] = target: ComD1 receptor (Streptococcus pneumoniae serotype 2, UniProt A0A0H2ZM50); test: cell-based
ComD1 receptor, sequence (A0A0H2ZM50 entry or part of it): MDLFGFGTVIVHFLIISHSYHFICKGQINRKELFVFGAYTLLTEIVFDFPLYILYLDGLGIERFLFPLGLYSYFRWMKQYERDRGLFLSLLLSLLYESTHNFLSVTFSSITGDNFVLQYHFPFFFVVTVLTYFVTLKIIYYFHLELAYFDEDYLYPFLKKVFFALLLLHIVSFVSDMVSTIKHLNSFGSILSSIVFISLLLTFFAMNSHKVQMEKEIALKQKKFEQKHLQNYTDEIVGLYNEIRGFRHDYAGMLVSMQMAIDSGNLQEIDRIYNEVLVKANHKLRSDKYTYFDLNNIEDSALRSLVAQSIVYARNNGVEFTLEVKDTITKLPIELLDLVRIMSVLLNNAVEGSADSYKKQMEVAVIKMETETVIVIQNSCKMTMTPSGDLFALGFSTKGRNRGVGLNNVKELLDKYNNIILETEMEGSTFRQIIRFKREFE
Protocol: as §1, §2, §3, §4, §5, §6

Row | Molecule | EC50 of activation of pcomX::lacZ (β-galactosidase) in reporter strain TIGR4pcomX::lacZ (group II, ComD2) [1] [nM] | EC50 of activation of pcomX::lacZ (β-galactosidase) in reporter strain D39pcomX::lacZ (group I, ComD1) [2] [nM] | EC50 [3] [nM] | EC50 [4] [nM] | ComD2 primary agonism screening: low induction, EC50 not determined ([3]; TIGR4pcomX::lacZ, 10 µM peptide, only analogs with greater than 75% activation compared to CSP2 were taken to EC50)
1 | CSP1-L13I (peptide) | 705 | 9.12 |  |  | 
2 | CSP1-L4NV (peptide) | 627 | 5.74 |  |  | 
3 | CSP1-I12NV (peptide) | 853 | 13.8 |  |  | 
4 | CSP1-F7HF (peptide) | 317 | 81.7 |  |  | 
5 | CSP1-L13NL (peptide) | > 1000 | 18.6 |  |  | 
6 | CSP1-F8HF (peptide) | > 1000 | 43.4 |  |  | 
7 | CSP1-I12NL (peptide) | > 1000 | 6.68 |  |  | 
8 | CSP1-L13NV (peptide) | > 1000 | 15.2 |  |  | 
9 | CSP1-L4NL (peptide) | > 1000 | 13.5 |  |  | 
10 | CCC[C@H](NC(=O)[C@H](CCCNC(=N)N)NC(=O)[C@H](CCSC)NC(=O)[C@@H](N)CCC(=O)O)C(=O)N[C@@H](CO)C(=O)N[C@@H](CCCCN)C(=O)N[C@@H](Cc1ccccc1)C(=O)N[C@@H](Cc1ccccc1)C(=O)N[C@@H](CCCNC(=N)N)C(=O)N[C@@H](CC(=O)O)C(=O)N[C@@H](Cc1ccccc1)C(=O)N[C@H](C(=O)N[C@@H](CC(C)C)C(=O)N[C@@H](CCC(N)=O)C(=O)N[C@@H](CCCNC(=N)N)C(=O)N[C@@H](CCCCN)C(=O)N[C@@H](CCCCN)C(=O)O)[C@@H](C)CC [CSP1-L4NV] (H-EMR[Nva]SKFFRDFILQRKK-OH; N-terminus assumed) |  |  | 627 | 5.74 | 
11 | CSP1-I12L (peptide) | 537 | 8.56 |  |  | 
12 | CSP1-L4I (peptide) | > 1000 | 10.2 |  |  | 
13 | CC[C@H](C)[C@H](NC(=O)[C@H](Cc1ccccc1)NC(=O)[C@H](CC(=O)O)NC(=O)[C@H](CCCNC(=N)N)NC(=O)[C@H](CCc1ccccc1)NC(=O)[C@H](Cc1ccccc1)NC(=O)[C@H](CCCCN)NC(=O)[C@H](CO)NC(=O)[C@H](CC(C)C)NC(=O)[C@H](CCCNC(=N)N)NC(=O)[C@H](CCSC)NC(=O)[C@@H](N)CCC(=O)O)C(=O)N[C@@H](CC(C)C)C(=O)N[C@@H](CCC(N)=O)C(=O)N[C@@H](CCCNC(=N)N)C(=O)N[C@@H](CCCCN)C(=O)N[C@@H](CCCCN)C(=O)O [CSP1-F8HF] |  |  | > 1000 | 43.4 | 
14 | CC[C@H](C)[C@H](NC(=O)[C@H](CCc1ccccc1)NC(=O)[C@H](CC(=O)O)NC(=O)[C@H](CCCNC(=N)N)NC(=O)[C@H](Cc1ccccc1)NC(=O)[C@H](Cc1ccccc1)NC(=O)[C@H](CCCCN)NC(=O)[C@H](CO)NC(=O)[C@H](CC(C)C)NC(=O)[C@H](CCCNC(=N)N)NC(=O)[C@H](CCSC)NC(=O)[C@@H](N)CCC(=O)O)C(=O)N[C@@H](CC(C)C)C(=O)N[C@@H](CCC(N)=O)C(=O)N[C@@H](CCCNC(=N)N)C(=O)N[C@@H](CCCCN)C(=O)N[C@@H](CCCCN)C(=O)O [CSP1-F11HF] |  |  | > 1000 | 65.8 | 
15 | EMRLSKFYRDFILQRKK-OH [CSP1-F8Y] |  |  |  | 85 | –^e
